Data: patent publication US20040038369A1, “Airway-specific trypsin-like enzymes and method of using the same” (priority 2000, published 2004)

Columns and labels:
Format in all cases: cell-based
PAR-1 = molecular target: T1, PAR-1 (Homo sapiens, UniProt P25116); test: Calcium influx in PAR-1-expressing insect cells; details: AST 2 units/mL; trypsin, thrombin 0.1 to 10 units/mL; SFLLRNamide 10 to 100 μM
T1 construct: expressed in transfected cells; host or cells: Sf9 insect cells infected with recombinant baculovirus VL-PAR (pVL1393)
T1 sequence (P25116 22-425): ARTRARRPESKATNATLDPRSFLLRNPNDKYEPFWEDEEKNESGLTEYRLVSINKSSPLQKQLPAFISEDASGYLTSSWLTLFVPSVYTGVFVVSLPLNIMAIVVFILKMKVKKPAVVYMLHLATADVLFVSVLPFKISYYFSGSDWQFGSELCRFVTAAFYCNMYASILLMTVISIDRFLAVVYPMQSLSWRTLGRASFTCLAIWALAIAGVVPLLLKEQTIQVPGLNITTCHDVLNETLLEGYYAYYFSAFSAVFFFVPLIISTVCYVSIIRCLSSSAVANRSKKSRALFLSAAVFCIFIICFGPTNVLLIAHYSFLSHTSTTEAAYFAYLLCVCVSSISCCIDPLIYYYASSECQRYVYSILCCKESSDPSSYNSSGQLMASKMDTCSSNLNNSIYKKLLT
Experimental: The recovered infected cells (about 5×10^6 cells) were once washed with HEPES-Tyrode buffer solution-Ca^2+ (−) pH 7.4, and then suspended in 5 mL of HEPES-Tyrode buffer solution (containing Fura2-AM, 1 μg/mL) to load the Fura2-AM on the cells at 27° C. for 30 minutes. The suspension was centrifuged at 800 rpm at room temperature for 5 minutes to recover the cells. The cells were twice washed with HEPES-Tyrode buffer solution-Ca^2+ (−) pH 7.4 and then resuspended in 5 mL of HEPES-Tyrode buffer solution-Ca^2+ (−) pH 7.4. The cell suspension was mixed with 5 μL of 1M CaCl2 to give a final concentration of 1 mM CaCl2, and then incubated in a shaded state at room temperature for 5 minutes. The prepared Fura2-AM-loaded infected cells were dispensed into a 96 well plate in a volume of 100 μL/well, further subjected to the dispensation of HEPES-Tyrode buffer solution-C^2+ (+) pH 7.4 in a volume of 80 μL/well, and then assayed with a Fluorescence Drug Screening System (made by Hamamatsu Photonics Co.). Namely, [intensity of 500 nm fluorescent light due to 340 nm exciting light]/[intensity of 500 nm fluorescent light due to 380 nm exciting light] (reflecting the concentration of calcium in the cells) was assayed.

PAR-2 = molecular target: T2, PAR-2 (Homo sapiens, UniProt P55085); test: Calcium influx in PAR-2-expressing insect cells; details: AST 2 units/mL; trypsin, thrombin 0.1 to 10 units/mL; SFLLRNamide, SLIGRL 10 to 100 μM
T2 construct: expressed in transfected cells; host or cells: Sf9 insect cells infected with recombinant baculovirus VL-PAR (pVL1393)
T2 sequence (P55085 26-397): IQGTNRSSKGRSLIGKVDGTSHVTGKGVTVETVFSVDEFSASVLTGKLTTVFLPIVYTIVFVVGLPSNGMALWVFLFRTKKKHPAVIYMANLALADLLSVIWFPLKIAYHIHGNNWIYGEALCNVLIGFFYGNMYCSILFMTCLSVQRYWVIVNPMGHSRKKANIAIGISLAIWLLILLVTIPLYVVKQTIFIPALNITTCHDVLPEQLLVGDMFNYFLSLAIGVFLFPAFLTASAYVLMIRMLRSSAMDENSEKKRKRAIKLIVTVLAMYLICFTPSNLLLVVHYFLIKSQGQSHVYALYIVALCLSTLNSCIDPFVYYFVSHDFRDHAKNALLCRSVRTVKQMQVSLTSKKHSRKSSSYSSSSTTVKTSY
Experimental: (§1) The above-obtained recombinant baculovirus VL-PAR for expressing the PAR was used to infect 1.0×10^7 Sf9 cells sowed on a 75 cm^2 flask at an MOI=2, and was then left and stationally cultured at 27° C. for 40 hours. After the culture, the infected cells were recovered and then subjected to a calcium influx experiment to-confirm the function of the PAR.
(§2) The recovered infected cells (about 5×10^6 cells) were once washed with HEPES-Tyrode buffer solution-Ca^2+ (−) pH 7.4, and then suspended in 5 mL of HEPES-Tyrode buffer solution (containing Fura2-AM, 1 μg/mL) to load the Fura2-AM on the cells at 27° C. for 30 minutes. The suspension was centrifuged at 800 rpm at room temperature for 5 minutes to recover the cells. The cells were twice washed with HEPES-Tyrode buffer solution-Ca^2+ (−) pH 7.4 and then resuspended in 5 mL of HEPES-Tyrode buffer solution-Ca^2+ (−) pH 7.4. The cell suspension was mixed with 5 μL of 1M CaCl2 to give a final concentration of 1 mM CaCl2, and then incubated in a shaded state at room temperature for 5 minutes. The prepared Fura2-AM-loaded infected cells were dispensed into a 96 well plate in a volume of 100 μL/well, further subjected to the dispensation of HEPES-Tyrode buffer solution-C^2+ (+) pH 7.4 in a volume of 80 μL/well, and then assayed with a Fluorescence Drug Screening System (made by Hamamatsu Photonics Co.). […]

PAR-4 = molecular target: T3, PAR-4 (Homo sapiens, UniProt Q96RI0); test: Calcium influx in PAR-4-expressing insect cells; details: AST 2 units/ml; trypsin, thrombin 0.1 to 10 units/mL
T3 construct: expressed in transfected cells; host or cells: Sf9 insect cells infected with recombinant baculovirus VL-PAR (pVL1393)
T3 sequence (Q96RI0 18-385): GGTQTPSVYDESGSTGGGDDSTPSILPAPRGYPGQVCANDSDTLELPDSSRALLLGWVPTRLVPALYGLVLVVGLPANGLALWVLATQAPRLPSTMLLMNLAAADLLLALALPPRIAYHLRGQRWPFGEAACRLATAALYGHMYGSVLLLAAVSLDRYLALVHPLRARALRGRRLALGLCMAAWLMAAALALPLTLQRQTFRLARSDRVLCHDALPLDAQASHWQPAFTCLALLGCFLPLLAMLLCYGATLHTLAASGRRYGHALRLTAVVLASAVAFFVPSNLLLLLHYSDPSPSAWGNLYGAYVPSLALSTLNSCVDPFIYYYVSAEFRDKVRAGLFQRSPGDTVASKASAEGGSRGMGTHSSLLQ
Experimental: as §1, §2

[1] = test system: normal human airway epithelial cells; test: Calcium influx in normal human airway epithelial cells; details: AST 2 units/mL; trypsin 10 to 100 units/mL; SFLLRNamide 100 μM
Experimental: The Ca^2+ influx due to the AST was examined with confluent normal epithelial cells adhered to three 10 cm dishes (purchased from BioWhittaker Corp.). The cells were peeled with a 10 mM EDTA/HEPES-Tyrode buffer solution for 10 minutes, recovered by a centrifugal treatment at 800 rpm at room temperature for 5 minutes, and then resuspended in 5 mL of HEPES-Tyrode buffer solution-Ca^2+ (−) pH 7.4. The recovered cells (about 1.2×10^6 cells) were suspended in 5 mL of HEPES-Tyrode buffer solution (1 μg/mL, containing Fura2-AM) to load the Fura2-AM to the cells at 37° C. for one hour. The cells were recovered by a centrifugal treatment at 800 rpm at room temperature for 5 minutes, twice washed with HEPES-Tyrode buffer solution-Ca^2+ (−) pH 7.4, and then resuspended in […] of HEPES-Tyrode buffer solution-Ca^2+ (−) pH 7.4. The cell suspension was mixed with 5 μL of 1M CaCl2 to give a final concentration of 1 mM CaCl2, and then incubated in a shaded state at room temperature for 5 minutes. The prepared Fura2-AM-loaded infected cells were dispensed into a 96 well plate in a volume of 100 μL/well, further subjected to the dispensation of HEPES-Tyrode buffer solution-Ca^2+ (+) pH 7.4 in a volume of 80 μL/well, and then assayed with Fluorescence Drug Screening System (Hamamatsu Photonics Co.). […]

BEAS-2B = test: Calcium influx in airway epithelial cell strain BEAS-2B; details: AST 2 units/mL; trypsin 10 to 100 units/mL; SFLLRNamide 100 μM
Experimental: The Ca^2+ influx due to the AST was examined with respect to an airway epithelial cell strain BEAS-2B. The confluent cells adhered to six 10 cm dishes were used. The cells were peeled with a 10 mM EDTA/HEPES-Tyrode buffer solution for 10 minutes, recovered by a centrifugal treatment at 1,500 rpm at room temperature for 5 minutes, and then resuspended in 10 mL of HEPES-Tyrode buffer solution-Ca^2+ (−) pH 7.4. The recovered cells (about 1.1×10^7 cells) were suspended in 11 mL of HEPES-Tyrode buffer solution (1 μg/mL, containing Fura2-AM) to load the Fura2-AM at 37° C. for 30 minutes. The cells were recovered by a centrifugal treatment at 1,500 rpm at room temperature for 5 minutes, twice washed with HEPES-Tyrode buffer solution-Ca^2+ (−) pH 7.4, and then resuspended in 11 mL of HEPES-Tyrode buffer solution-Ca^2+ (−) pH 7.4. The cell suspension was mixed with […] of 1M CaCl2 to give a final concentration of 1 mM CaCl2, and then incubated in a shaded state at room temperature for 5 minutes. The prepared Fura2-AM-loaded infected cells were dispensed into a 96 well plate in a volume of 100 μL/well, further subjected to the dispensation of HEPES-Tyrode buffer solution-Ca^2+ (+) pH 7.4 in a volume of 80 μL/well, and then assayed with Fluorescence Drug Screening System (Hamamatsu Photonics Co.). […]

Measured: Ca2+ influx

B1: trypsin: trypsin originated from bovine pancreas (protein)
chain: IVGGYTCGANTVPYQVSLNSGYHFCGGSLINSQWVVSAAHCYKSGIQVRLGEDNINVVEGNEQFISASKSIVHPSYNSNTLNNDIMLIKLKSAASLNSRVASISLPTSCASAGTQCLISGWGNTKSSGTSYPDVLKCLKAPILSDSSCKSAYPGQITSNMFCAGYLEGGKDSCQGDSGGPVVCSGKLQGIVSWGSGCAQKNKPGVYTKVCNYVSWIKQTIASN
observed: all assays above
